In patent publication US20250186597A1, “TARGETED IMMUNE ACTIVATION WITH IL-18 IMMUNOCYTOKINES” (BRIGHT PEAK THERAPEUTICS AG, priority 2023, published 2025):

T1: human IL-18BP (Homo sapiens, UniProt O95998)
T1 construct: His
T1 sequence (O95998 31-194): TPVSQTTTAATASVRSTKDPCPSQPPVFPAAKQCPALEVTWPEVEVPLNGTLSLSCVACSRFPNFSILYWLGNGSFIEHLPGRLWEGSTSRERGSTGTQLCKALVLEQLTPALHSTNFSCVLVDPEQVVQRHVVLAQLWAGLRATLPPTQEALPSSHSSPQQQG


How the values were obtained:
NK92 cells = experiment: IFN gamma secretion assay in NK92 cells (Example 10); assay type: cell-based, human; conditions: IFNγ secretion, 1 ng/ml IL-12
Description: The IFNγ-secretion stimulating activity of the unconjugated IL-18 variants and corresponding IL-18 immunocytokines was evaluated on NK92 cell line. The NK cell line NK-92 derived from a patient with lymphoma (ATCC, Cat #CRL-2407) was cultured in aMEM medium supplemented with 12.5% FCS, 12.5% horse serum (HS), 50 uM B-mercaptoEthanol, and 2 ng/ml of recombinant Human Interleukin-2 (IL-2).
On the day of experiment, cells were harvested and washed with aMEM medium without IL-2 and resuspended in medium (w/o IL-2) containing 1 ng/ml of recombinant human Interleukin-12 (SinoBiologicals, Cat #CT011-H08H). After counting, cells were seeded at 100 000 cells/well in a 384 well titer plate and incubated at 37° C./5% CO2. Sixteen 4-fold serial dilutions of IL-18 analytes were prepared in aMEM medium—1 ng/ml IL-12 and were added to the NK-92 cells. […]
After 16-20 h incubation at 37° C./5% CO2, 5 μl of supernatant were carefully transferred to a 384 microwells OPTIPlate (Perkin Elmer; Cat #6007270) and Interferon-gamma (IFNγ) levels measured using the Human IFNγ AlphaLISA Assay Kit (Perkin Elmer, Cat #AL217C). […] AlphaLisa signal was then measured on an Enspire plate reader (Perkin Elmer) using 680 and 615 nm as excitation and emission wavelengths respectively. Half maximal effective concentration (EC50) was calculated based on a variable slope, four parameter analysis using GraphPad PRISM software.

human IL-18BP = target: T1, human IL-18BP; experiment: IL-18BP binding alphaLISA assay (Example 4, used in Example 22B); conditions: IL-18BP AlphaLISA
NK-92 cells [1] = experiment: IFNγ induction cellular assay in NK-92 cells (Example 4, used in Example 22C); assay type: cell-based, human; conditions: IFNg stimulation in NK92 cells
NK-92 cells [2] = experiment: IL-18 binding protein inhibition cellular assay in NK-92 cells (Example 4, used in Example 22C); assay type: cell-based, human; conditions: inhibition by IL-18BP of IFNg stimulation in NK92 cells

Molecule	EC50 (NK92 cells)	Kd (human IL-18BP)	EC50 (NK-92 cells [1])	IC50 (NK-92 cells [2])
SEQ ID NO: 60: IL-18 polypeptide: E6K, C38Q, K53A (protein) YFGKLKSKLSVIRNLNDQVLFIDQGNRPLFEDMTDSDQRDNAPRTIFIISMYADSQPRGMAVTISVKCEKISTLSCENKIISFKEMNPPDNIKDTKSDIIFFQRSVPGHDNKMQFESSSYEGYFLACEKERDLFKLILKKEDELGDRSIMFTVQNED	8 pM			
59 (protein) YFGKLKSKLSVIRNLNDQVLFIDQGNRPLFEDMTDSDARDNAPRTIFIISMYADSQPRGMAVTISVKCEKISTLSCENKIISFKEMNPPDNIKDTKSDIIFFQRSVPGHDNKMQFESSSYEGYFLACEKERDLFKLILKKEDELGDRSIMFTVQNED		36 nM	0.015 nM	654 nM
35 (protein) GAGKLKSKLSVIRNLNDQVLFIDQGNRPLFEDMTDSDCRDNAPRTIFIISGYAAAQPRGMAVAISVKCEKISTLSCENKIISFKEMNPPDNIKDTKSDIIFFQRSVPGHDNKMQFESSSYEGYFLACEKERDLFKLILKKEDELGDRSIMFTVQNED		969 nM	> 55 nM	> 55 nM
62 (protein) YFGKLKSKLSVIRNLNDQVLFIDQGNRPLFEDMTDSDARDNAPRTIFIISMYADSQPRGMAVTISVKCEKISTLSCENKIISFKEMNPPDNIKDTKSDIIFFQRSVPGHDNKMQFESSSYEGYFLAAEKERDLFKLILKKEDELGDRSIMFTVQNED		69.6 nM	0.026 nM	284 nM

The remaining lines, values ahead:

EC50 (NK92 cells)	Kd (human IL-18BP)	EC50 (NK-92 cells [1])	IC50 (NK-92 cells [2])	Molecule
	24.8 nM	0.006 nM	780 nM	60 (protein) YFGKLKSKLSVIRNLNDQVLFIDQGNRPLFEDMTDSDQRDNAPRTIFIISMYADSQPRGMAVTISVKCEKISTLSCENKIISFKEMNPPDNIKDTKSDIIFFQRSVPGHDNKMQFESSSYEGYFLACEKERDLFKLILKKEDELGDRSIMFTVQNED
	0.04 nM	0.103 nM	0.809 nM	C167: IL-18 polypeptide: V11I, C38A, C76A, S105I, C127A (protein) YFGKLESKLSIIRNLNDQVLFIDQGNRPLFEDMTDSDARDNAPRTIFIISMYKDSQPRGMAVTISVKCEKISTLSAENKIISFKEMNPPDNIKDTKSDIIFFQRIVPGHDNKMQFESSSYEGYFLAAEKERDLFKLILKKEDELGDRSIMFTVQNED
	0.05 nM	0.098 nM	0.176 nM	C168: IL-18 polypeptide: V11I, C38A, C76A, S105K, C127A (protein) YFGKLESKLSIIRNLNDQVLFIDQGNRPLFEDMTDSDARDNAPRTIFIISMYKDSQPRGMAVTISVKCEKISTLSAENKIISFKEMNPPDNIKDTKSDIIFFQRKVPGHDNKMQFESSSYEGYFLAAEKERDLFKLILKKEDELGDRSIMFTVQNED
